Experimental findings from the DeepSol protein solubility set are described below.

The series in a line: soluble on expression in E. coli; label from the status in PepcDB or PDB records.
As to “MKKVFDVWDVETAKRFLEIIKDEPIYYPALIALHTGMRAGEILSLKWCDVNFETRVISIVKSERKNRGLKTVNLKTKTSKRAVYMNDILYKELKNLYEITKPKPDDFVCPRLPTGNLTVNYLSRKFKKLVKKHNFPLIRFHDLRHTFATLMLSLGVNTKIVAEILGHSDIKLTADTYSHVLPTMQEEAMKEFVKLWKLEHHHHHH”, the “soluble on expression in E. coli” value is given as “soluble”.
“DFEVGDKIRILATLEDGWLEGSLKGRTGIFPYRFVKLCPDTRVEETMALPQEGSLARIPETSLDCLENTLGVEEQRHETSDHEAEEPDCIISEAPTSPLGHLTSEYDTDRNSYQDEDTAGGPPRSPGVEWEMPLATDSPTSDPTEVVNGISSQPQVPFHPNLQKSQYYSTVGGSHPHSEQYPDLLPLEARTRDYASLPPKRMYSQLKTLQKPVLPLYRGSSVSASRVVKPRQSSPQLHNLASYTKKHHTSSVYSISERLEMKPGPQAQGLVMEAATHSQGDGSTDLDSKLTQQLIEFEKSLAGPGTEPDKILRHFSIMDFNSEKDIVRGSSKLITEQELPERRKALRPPPPRPCTPVSTSPHLLVDQNLKPAPPLVVRPSRPAPLPPSAQQRTNAVSPKLLSRHRPTCETLEKEGPGHMGRSLDQTSPCPLVLVRIEEMERDLDMYSRAQEELNLMLEEKQDESSRAETLEDLKFCESNIESLNMELQQLREMTLLSSQSSSLVAPSGSVSAENPEQRMLEKRAKVIEELLQTERDYIRDLEMCIERIMVPMQQAQVPNIDFEGLFGNMQMVIKVSKQLLAALEISDAVGPVFLGHRDELEGTYKIYCQNHDEAIALLEIYEKDEKIQKHLQDSLADLKSLYNEWGCTNYINLGSFLIKPVQRVMRYPLLLMELLNSTPESHPDKVPLTNAVLAVKEINVNINEYKRRKDLVLKYRKGDEDSLMEKISKLNIHSIIKKSNRVSSHLKHLTGFAPQIKDEVFEETEKNFRMQERLIKSFIRDLSLYLQHIRESACVKVVAAVSMWDVCMERGHRDLEQFERVHRYISDQLFTNFNGQKS”: the “soluble on expression in E. coli” value is on record as “soluble”.
Turning to “SLSIKTILIDDEPKAIAILKNKIERLCPDLEIVATIEKPALAFDIINELQPQLVFIDIAMPGMSGFDVLEQFKKPQFEIIFATAFDQYALDAIKQCAIGYLVKPIDNEDLVEAVTNATTNIEQKNALVKNTQLLENINQENFHKKKIVIPSTDGLEFVKVKSITHCEGVDGYTKIHFTNRKPILSSSSIGHFKKLLSHPDFYHVHKSYVTNTNHIIKYLNDGYVTLTGDVTIPVARAKRAEFLEKFRNEG”, the “soluble on expression in E. coli” value is “not soluble”.
Turning to “MLKFISLLGTSKYVPCNYFIKNREELKINDCCYVQKAILDILRQENVIPDKIIIFTTDEAHVSNWENNKWNNKGDKNDVQEIEDELQKRPGLKGELEKYKELTGADFKSVRIPNGIREEDLWEIFRTIFDEIDENDEIIFDVTHSFRYLPMLVFIVINYARVVKKCKLKSIYYGAFEVLGTPETVAKIPLEERNAPIFDLTSFVDLFDWTMGIDRYLNTGDVSVVHELTDIQIKRVNKEKLKFISKSEQGVDPKTLFMDSRQLRALSESMKNFSDVVFTCRGLELTRVACELKEKLREVTESASRQHIIPLMPVLEMMKERFDKFSKDNDYINIIETARWCADNKMYQQGLTILEEGLISFGCEKLGYENLSDKIDLDKRRKIGSYAFVVSNDFGRKSDNKKEKIPLLNIKSDVITDLLILIDEISSIRNDINHAGWRKDPSEAGAFGEQLKNFISRAEKIISPENFSTESDKCINNDSVDKEKKMLLILSHKLVPKQEEEARQRFGISKFLPMPNELHNKWSNIPPELEDLRDYLNDILEWIDLNAQEGDYALIQGDYGATFIAVNHCLAKGIIPVYSTTHRIVREEKNEDKVISVREFEHVILRKYEN”, the “soluble on expression in E. coli” value is listed as “not soluble”.
With “MSLAGILGFPVAPFNTQGTLEEEALFQNIEFLLNEGLEAIFIACGSGEFQSLSQKEYEQMVEVAVSAAGGKVPVYTGVGGNLSTALDWAQLSEKKGADGYLILPPYLVHGEQEGLYQYAKTIIESTDLNAILYQRDNAVLSVEQIKRLTECEQLVGVKDGVGNMDLNINLVYTIGDRLGWLNGMPMAEVTMPAYLPIGFHSYSSAISNYIPHISRMFYDALKNGNDELVKELYRHVILPINDIRKQRKGYAVSLIKAGMEIMGLNVRNTARPPVGPVEKDHYQQLEAILKQPADRFPKKEGHHHHHH”, the “soluble on expression in E. coli” value is reported as “not soluble”.
Under “NFMLTQPHSVSESPGKTVTISCTRSSGSIASYYVQWYQQRPGSSPTTVIYEDSQRPSGVPDRFSGSIDSSSNSASLTISGLKTEDEADYYCQSYDSSNVVFGGGTKLTVLGQPKAAPSVTLFPPSSEELQANKATLVCLISDFYPGAVTVAWKADSSPVKAGVETTTPSKQSNNKYAASSYLSLTPEQWKSHRSYSCQVTHEGSTVEKTVAPTECS” stands “soluble”; under “MCASFAKFAERWNPLPETLLSWSKNNCDKVQPRPRDMSCEDVVQFVADCNFSGGGPGPGKLADTTNRQVADTFYQRTYENSPRVLPKYIYYNENTARDYGQFGNWYYPNYYPPTYLGFFDGRPASMAQLENDYKFAKGGHYPYNRADNIVNIGLQQTYLPTCLHDLFYCVRASNGQRPQAYLNYKEYRRDRDQAAEQMAQRDQDIKTLRRHRTRHHEDDE”, “not soluble”.
To “MTEKTTVKTLKDVVVRFCGDSGDGMQLTGTIFSDLSAVFGNTISTFPDYPAEIRAPQGTLGGVSGFQVHIGTDLVRTPGDLADVLVAMNPAALKVNRTHVRRDSIIIIDSDSFMASDLEKAEIASEDFMTELGLTTQELFTVPISSMVKKSTAEFGLDVKAALRCKNMFALGLVCWLFDRPTQHAIDYLNRKFGKKEAILNANIKALADGFNYGHNTHATATTYRIEGRKQTPGVYMDISGNKATAYGLVAAAEHANLNLFLGSYPITPATDILHELAKLKSLGVKTVQAEDEIAGICTAIGVSFAGDLAVTTTSGPGLALKSEALGLTVMAELPLVLVDVQRGGPSTGLPTKSEQTDLLQALFGRNGESPIPVIAATTPSDCFDSAFWACKIALEHMTPVILLTDAFIANGSSAWRIPDPQSYPDIRPPYVDQYKGEAKWRPYFRNEETHVRYWAIPGQEGFQHRLGGLEKDYVTGAISTNPENHAKMVATREAKVQAIAQDIPDLEVHGDKDDAELLIIGWGGTYGHLYETMERMRNAGKKVALAHFRFINPLPKNTAEVLQRYPKAVVAEQNLGQFALYLRGEVPGFHPLQFNRVTGQPLVMSEMVEVFTQMMEEK” belongs “not soluble”; to “MGSDKIHHHHHHMFDWNDVRFFLALQRNGKLLGAARQMGTTHATVARHIAALEKVLGQPLFVQQADGYSLTAAGRQLLPLAESLENTASQMLDSGSKGHAEVSGVVRLGAPEGLGALFLARHMPALMARYPELEIDLVAVPRFVSVTSREVDIAIALERPQANMVVTRKLTDYCLGLYATQAYLAAHPPIREREDLNGHAILAYVDDLLFTRELMYHHGLCRHPSMPLRSTSVVAQREAALADGGIAVLPYYTTYDDPRLTQILPELRIIRSYWISARSNIRRTLRYRVVWDYVVELCQNMQWLLLQEEQNRSIETA”, “not soluble”; to “MGNQRHHYNDYEDVRMLKWVARNDKSLGPFGIITWQLYVEAYNCPYSVQSLCGRMRRQIVPNIDYYSRHLKSSDLISLERRFGSRLGAETRKYIRNLAVKTVKIVQVVASRPVEKNSEIEVQKVASLELQAAPTAPTTSAAQLGKTKSPGARTQRIERNDELSRDVFESSCASTIVEPEPPQEEPPQRSHNWKTEMRKIAGQAAQAINDLIRQTVENNDFNKKMFAELENQQNLDHLYGKMFDDPNKADWIMIDVKKFTENHLRMQYFRKIREELHKRFTNQHIIRAVFCFFQFFEYYVTVCVDESTDNYILLMNKVLEMSIKLLPLYIVHC”, “not soluble”.
For the sequence “MKSTEKKELSHFRLKLETYLNEHFPEMSGNNPFITARSDEALTAYCDAVAQGFSHPEAESMASEVLYQGLHFSRYDTLVSVLEREFEQELPSPLPERLAPILLKNKAIQSVFAKYDLTDDFEASPEYEHLYTELTGTIVLLIESNHLPTIGGGNDTV”, the “soluble on expression in E. coli” value is listed as “soluble”.
Regarding “MANVLVINFPGEGHINPTLAIISELIRRGETVVSYCIEDYRKKIEATGAEFREFENFLSQINIMERVNEGGSPLTMLSHMIEASERIVTQIVEETKGEQYDYLLYDNHFPVGRIIANVLQLPSISSCTTFAFNQYITFNDEQESRQVDETNPLYQSCLAGMEKWNRQYGMKCNSMYDIMNHPGDITIVYTSKEYQPRSDVFDESYKFVGPSIATRKEVGSFPMEDLKGEKLIFISMGTVFNEQPELYEKCFEAFKGVEATVILAVGKKINISQFENIPNNFKLYNYVPQLEVLQHADVFVTHGGMNSSSEALYYGVPLVVIPVTGDQPLVAKRVNEVGAGIRLNRKELTSELLRETVKEVMYDVTFKENSRKVGESLRNAGGYKRAVDEIFKMKMNSYLKLK”, the “soluble on expression in E. coli” value was “not soluble”.
Regarding “MRKEVEQLALMGAMPDETDEPTDVLIDKYADLLGKITKPITLDEAHILIKLFPPTALYGIEWTLLHLIESVYPETEFIKYKELINECNSVEFREMLVQRLNNSQQNKVTNK”, the “soluble on expression in E. coli” value was “not soluble”.
As for “MTIRMIPHPIFSSPTKRRREKPDPPARAGAAQPSGPARMTPQQQTEWQQRLIALLESQPPDDDGAHDLSHLHRVWAVARTLLAHYPDADSIVVMAGSYLHDLVNLPKNHPQRQLASHWSAERARQLLADSGLTEAQLDNLAHAIEAHSYSAAIPPRTLEARIVQDADRMDALGPVGLARMFYVSGRMGRALAHPLDPLAEHRGRDDQAWAIDHIDVKLAKLPGMMQTEAGRAMAERKLEWLFHFRDEFCRDWMARLEHHHHHH”, the “soluble on expression in E. coli” value is given as “soluble”.
Under “MSMPATLTKTTKLATSLIDEYALLGWRAMLTEVNLSPKPGLVDRINCGAHKDMALEDFHRSALAIQGWLPRFIEFGACSAEMAPEAVLHGLRPIGMACEGDMFRATAGVNTHKGSIFSLGLLCAAIGRLLQLNQLLTPTTVCSTAASFCRGLTDRELRTNNSQLTAGQRLYQQLGLTGARGEAEAGYPLVINHALPHYLTLLDQGLDPELALLDTLLLLMAINGDTNVASRGGEGGLRWLQREAQTLLQKGGIRTPADLDYLRQFDRECIERNLSPGGSADLLILTWFLAQI” stands “soluble”; under “IGQVKYNIGGSLSDAWSKVLELANNENVPNEGKNENRLIGMPRQALYVYQTDGIFQSADEVAAYYEKYYWNADHSGPKANNILPAPQEASTNTLRPGARKVVDLNGDGAITKDDLYYAGDMAPRLTFGFKLGLEWKGIDFSAFFQGVGKQVLLRGGYLAAPWTTNYVLQNKNFAGKMWSENNRDAEYTIASRDQNFNKWNYNNKDVSVQNNRYVRLKSLVVGYSLPQKWISKAGLSKLRVYFSGDDLWEWTKVKDGYDPEYGENSNNTFPFSRLLTFGVDVTF”, “not soluble”.
Turning to “MTTDFTPWPEALAAQYRQLGYWQDKTLLDYLQQSAERTPNALALVGDNQQWRYQAMLERIEQLAAGFTELGLGCGDNVVLQLGNVAEFYLCFFALLRQGIRPILALPAHRLAEIRYFCQHSQAKAYLIDGAQRPFDYQALAQELLACCPTLQTVIVRGQTRVTDPKFIELASCYSASSCQANADPNQIAFFQLSGGTTGTPKLIPRTHNDYAYSVTASVEICRFDQHTRYLCVLPAAHNFPLSSPGALGVFWAGGCVVLSQDASPQHAFKLIEQHKITVTALVPPLALLWMDHAEKSTYDLSSLHFVQVGGAKFSEAAARRLPKALGCQLQQVFGMAEGLVNYTRLDDSAELIATTQGRPISAHDQLLVVDEQGQPVASGEEGYLLTQGPYTIRGYYRADQHNQRAFNAQGFYITGDKVKLSSEGYVIVTGRAKDQINRGGEKIAAEEVENQLLHHPAVHDAALIAISDEYLGERSCAVIVLKPEQSVNTIQLKRFLHQAGLADYKIPDQIQFIDQLPKTSVGKIDKNALRRRFDTLGLALMS”, the “soluble on expression in E. coli” value was “not soluble”.
